Experimental findings from patent publication US20220056104A1 (Janssen / Centocor, published 2022) are described below.

In test [1] the target is T1, Recombinant DR3-Fc (R&D Systems, cat. #943-D3) (UniProt Q93038 25-199, limits assumed).
T1 construct: dimeric MW~92 kDa; also called DR3 receptor; Fc-DR3; not shown: Fc part of the bought fusion
T1 sequence (looked up): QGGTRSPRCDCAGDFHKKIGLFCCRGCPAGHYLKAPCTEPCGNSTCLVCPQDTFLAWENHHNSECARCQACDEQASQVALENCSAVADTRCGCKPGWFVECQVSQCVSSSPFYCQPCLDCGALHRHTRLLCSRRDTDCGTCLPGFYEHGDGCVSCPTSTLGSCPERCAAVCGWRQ
As to the kind of experiment: ELISA, DR3-Fc immobilized. As to the method:
All ELISA-based measurements were collected in triplicate, and error values report the standard error between measurements. Recombinant DR3-Fc (R&D Systems, cat. #943-D3), dimeric MW˜92 kDa, was non-specifically immobilized onto plates (Nunc maxisorp, cat. #436110) in 100 μL DR3-Fc, diluted to 10 μg/mL onto a 96-well White Maxisorp plate (Nunc, cat #436110) (O/N, 4° C.). Plates were block for 1 hour at room temperature with 250 μl/well of casein buffer and blocking buffer was removed. 50 μL of TL1A variants were diluted in StartingBlock PBS (Thermo Fisher Scientific), at 25 μg/mL, diluting 3× over each well, according to the plate map description for 20160623) per well on a 96-well White Maxisorp plate (Nunc, cat #: 436110) (overnight at 4° C.).
Plates were washed three times with TBST. 100 μl/well polyclonal rabbit anti-human TL1A-biotin antibody (diluted 1:1000 in Starting Block PBS) was added and plates were incubated for 1 hour at room temperature with shaking at 150 rpm. TL1A-biotin antibody was removed and 100 μl/well streptavidin-HRP conjugate (diluted 1:10,000 in Starting Block PBS) was added to plates. Plates were incubated for 1 hour at room temperature with shaking at 150 rpm. Plates were washed three times with TBST. 100 μl/well POD Chemiluminescence substrate (Roche, cat #: 11582950001) was added immediately prior to reading plate luminescence using a Molecular Devices M5 plate reader with a delay setting of 100 ms.
Variants of TL1A were generated and tested for binding to DR3 and DcR3 by ELISA as described.
A general note: An ELISA detects its analyte on a solid surface through an enzyme-linked reagent.

Test [2] has as its target T2, DcR3 (UniProt O95407 30-300, limits assumed).
T2 construct: the construct is not described; also called decoy receptor DcR3; TNFRSF6B
T2 sequence (looked up): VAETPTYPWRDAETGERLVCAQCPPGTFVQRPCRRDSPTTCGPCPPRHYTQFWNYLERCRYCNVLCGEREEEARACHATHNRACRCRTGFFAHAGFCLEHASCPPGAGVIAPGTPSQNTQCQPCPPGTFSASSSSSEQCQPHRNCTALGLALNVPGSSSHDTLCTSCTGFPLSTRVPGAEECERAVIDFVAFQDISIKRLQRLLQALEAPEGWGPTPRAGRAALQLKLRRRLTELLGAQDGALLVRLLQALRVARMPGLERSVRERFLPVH
Briefly: ELISA, DcR3.

B1: TL1W100 (His-TEV-TL1A S176L) (ligand)
chain: HHHHHHENLYFQGLKGQEFAPSHQQVYAPLRADGDKPRAHLTVVRQTPTQHFKNQFPALHWEHELGLAFTKNRMNYTNKFLLIPESGDYFIYSQVTFRGMTSECSEIRQAGRPNKPDLITVVITKVTDSYPEPTQLLMGTKSVCEVGSNWFQPIYLGAMFSLQEGDKLMVNVSDISLVDYTKEDKTFFGAFLL
notes: also called TL1W100 (S176L)
Usually EC50 stands for the midpoint of the concentration-response curve. Turning to B1, in test [1], the EC50 came out at 324 nM and the “Rel EC50” value is 12.4 ratio (head: nM). Moreover, in test [2], the EC50 is 15 nM and the “Rel EC50” value is 3.3 ratio (head: nM).

B2: TL1W107 (His-TEV-TL1A D186Y) (ligand)
chain: HHHHHHENLYFQGLKGQEFAPSHQQVYAPLRADGDKPRAHLTVVRQTPTQHFKNQFPALHWEHELGLAFTKNRMNYTNKFLLIPESGDYFIYSQVTFRGMTSECSEIRQAGRPNKPDSITVVITKVTYSYPEPTQLLMGTKSVCEVGSNWFQPIYLGAMFSLQEGDKLMVNVSDISLVDYTKEDKTFFGAFLL
notes: also called TL1W107 (D186Y)
As for B2, in test [1], the EC50 came out at 63.8 nM and the “Rel EC50” value was 2.4 ratio (head: nM). Further, in test [2], the EC50 came to 6.2 nM and the “Rel EC50” value is 1.4 ratio (head: nM).

B3: TL1W106 (His-TEV-TL1A T185D) (ligand)
chain: HHHHHHENLYFQGLKGQEFAPSHQQVYAPLRADGDKPRAHLTVVRQTPTQHFKNQFPALHWEHELGLAFTKNRMNYTNKFLLIPESGDYFIYSQVTFRGMTSECSEIRQAGRPNKPDSITVVITKVDDSYPEPTQLLMGTKSVCEVGSNWFQPIYLGAMFSLQEGDKLMVNVSDISLVDYTKEDKTFFGAFLL
notes: also called TL1W106 (T185D)
On to B3, for which the half-maximal effective concentration (EC50) in test [1] amounted to 124 nM; in test [2], 79.9 nM. Moreover, the entries for the “Rel EC50” value in test [1] and in test [2] were 4.7 ratio (head: nM) and 17.4 ratio (head: nM), respectively.

B4: TL1W117 (His-TEV-TL1A T192E) (ligand)
chain: HHHHHHENLYFQGLKGQEFAPSHQQVYAPLRADGDKPRAHLTVVRQTPTQHFKNQFPALHWEHELGLAFTKNRMNYTNKFLLIPESGDYFIYSQVTFRGMTSECSEIRQAGRPNKPDSITVVITKVTDSYPEPEQLLMGTKSVCEVGSNWFQPIYLGAMFSLQEGDKLMVNVSDISLVDYTKEDKTFFGAFLL
notes: also called TL1W117 (T192E)
For B4, in test [1], the EC50 was 113 nM and the “Rel EC50” value was 4.3 ratio (head: nM). Further, in test [2], the EC50 was 12 nM and the “Rel EC50” value was 2.6 ratio (head: nM).

B5: TL1W110 (His-TEV-TL1A S187K) (ligand)
chain: HHHHHHENLYFQGLKGQEFAPSHQQVYAPLRADGDKPRAHLTVVRQTPTQHFKNQFPALHWEHELGLAFTKNRMNYTNKFLLIPESGDYFIYSQVTFRGMTSECSEIRQAGRPNKPDSITVVITKVTDKYPEPTQLLMGTKSVCEVGSNWFQPIYLGAMFSLQEGDKLMVNVSDISLVDYTKEDKTFFGAFLL
notes: also called TL1W110 (S187K)
For the molecule B5, the EC50 turned out to be 33.7 nM in test [1] and 15.8 nM in test [2]. Moreover, the “Rel EC50” value in test [1] is 1.3 ratio (head: nM); in test [2], 3.4 ratio (head: nM).

B6: TL1W113 (His-TEV-TL1A P189S) (ligand)
chain: HHHHHHENLYFQGLKGQEFAPSHQQVYAPLRADGDKPRAHLTVVRQTPTQHFKNQFPALHWEHELGLAFTKNRMNYTNKFLLIPESGDYFIYSQVTFRGMTSECSEIRQAGRPNKPDSITVVITKVTDSYSEPTQLLMGTKSVCEVGSNWFQPIYLGAMFSLQEGDKLMVNVSDISLVDYTKEDKTFFGAFLL
notes: also called TL1W113 (P189S)
Turning to B6, the results for the EC50 in test [1] and in test [2] were 1000 nM and 19.8 nM, respectively. Besides, the results for the “Rel EC50” value in test [1] and in test [2] were 38.2 ratio (head: nM) and 4.3 ratio (head: nM), respectively.

B7: TL1W103 (His-TEV-TL1A T185A) (ligand)
chain: HHHHHHENLYFQGLKGQEFAPSHQQVYAPLRADGDKPRAHLTVVRQTPTQHFKNQFPALHWEHELGLAFTKNRMNYTNKFLLIPESGDYFIYSQVTFRGMTSECSEIRQAGRPNKPDSITVVITKVADSYPEPTQLLMGTKSVCEVGSNWFQPIYLGAMFSLQEGDKLMVNVSDISLVDYTKEDKTFFGAFLL
notes: also called TL1W103 (T185A)
Take B7: in test [1], the EC50 amounted to 57.9 nM and the “Rel EC50” value was 2.2 ratio (head: nM). In test [2], the 50% effective concentration (EC50) is 11.5 nM and the “Rel EC50” value is 2.5 ratio (head: nM).

B8: TL1W116 (His-TEV-TL1A T192K) (ligand)
chain: HHHHHHENLYFQGLKGQEFAPSHQQVYAPLRADGDKPRAHLTVVRQTPTQHFKNQFPALHWEHELGLAFTKNRMNYTNKFLLIPESGDYFIYSQVTFRGMTSECSEIRQAGRPNKPDSITVVITKVTDSYPEPKQLLMGTKSVCEVGSNWFQPIYLGAMFSLQEGDKLMVNVSDISLVDYTKEDKTFFGAFLL
notes: also called TL1W116 (T192K)
On to B8, for which, in test [1], the EC50 is 77 nM and the “Rel EC50” value is 2.9 ratio (head: nM). In addition, in test [2], the midpoint of the response, the EC50, lay at 23.3 nM and the “Rel EC50” value was 5.1 ratio (head: nM).

B9: TL1W111 (His-TEV-TL1A S187D) (ligand)
chain: HHHHHHENLYFQGLKGQEFAPSHQQVYAPLRADGDKPRAHLTVVRQTPTQHFKNQFPALHWEHELGLAFTKNRMNYTNKFLLIPESGDYFIYSQVTFRGMTSECSEIRQAGRPNKPDSITVVITKVTDDYPEPTQLLMGTKSVCEVGSNWFQPIYLGAMFSLQEGDKLMVNVSDISLVDYTKEDKTFFGAFLL
notes: also called TL1W111 (S187D)
Turning to B9, the EC50 in test [1] stood at 44.2 nM; in test [2] it was 16.7 nM. Further, the “Rel EC50” value is 1.7 ratio (head: nM) in test [1] and 3.6 ratio (head: nM) in test [2].

B10: TL1W114 (His-TEV-TL1A T192A) (ligand)
chain: HHHHHHENLYFQGLKGQEFAPSHQQVYAPLRADGDKPRAHLTVVRQTPTQHFKNQFPALHWEHELGLAFTKNRMNYTNKFLLIPESGDYFIYSQVTFRGMTSECSEIRQAGRPNKPDSITVVITKVTDSYPEPAQLLMGTKSVCEVGSNWFQPIYLGAMFSLQEGDKLMVNVSDISLVDYTKEDKTFFGAFLL
notes: also called TL1W114 (T192A)
B10: in test [1], the half-maximal effective concentration (EC50) was 23.3 nM and the “Rel EC50” value is 0.9 ratio (head: nM). Besides, in test [2], the EC50 was 10 nM and the “Rel EC50” value was 2.2 ratio (head: nM).

B11: TL1W102 (His-TEV-TL1A S176K) (ligand)
chain: HHHHHHENLYFQGLKGQEFAPSHQQVYAPLRADGDKPRAHLTVVRQTPTQHFKNQFPALHWEHELGLAFTKNRMNYTNKFLLIPESGDYFIYSQVTFRGMTSECSEIRQAGRPNKPDKITVVITKVTDSYPEPTQLLMGTKSVCEVGSNWFQPIYLGAMFSLQEGDKLMVNVSDISLVDYTKEDKTFFGAFLL
notes: also called TL1W102 (S176K)
As to B11, in test [1], the EC50 was 182 nM and the “Rel EC50” value was 6.9 ratio (head: nM). In addition, in test [2], the concentration giving a half-maximal response (EC50) was found to be 29.2 nM and the “Rel EC50” value is 6.3 ratio (head: nM).

B12: TL1W115 (His-TEV-TL1A T192F) (ligand)
chain: HHHHHHENLYFQGLKGQEFAPSHQQVYAPLRADGDKPRAHLTVVRQTPTQHFKNQFPALHWEHELGLAFTKNRMNYTNKFLLIPESGDYFIYSQVTFRGMTSECSEIRQAGRPNKPDSITVVITKVTDSYPEPFQLLMGTKSVCEVGSNWFQPIYLGAMFSLQEGDKLMVNVSDISLVDYTKEDKTFFGAFLL
notes: also called TL1W115 (T192F)
With B12, the 50% effective concentration (EC50) is 14.2 nM in test [1] and 10.6 nM in test [2]. Besides, the entries for the “Rel EC50” value in test [1] and in test [2] were 0.5 ratio (head: nM) and 2.3 ratio (head: nM), respectively.

B13: TL1W105 (His-TEV-TL1A T185N) (ligand)
chain: HHHHHHENLYFQGLKGQEFAPSHQQVYAPLRADGDKPRAHLTVVRQTPTQHFKNQFPALHWEHELGLAFTKNRMNYTNKFLLIPESGDYFIYSQVTFRGMTSECSEIRQAGRPNKPDSITVVITKVNDSYPEPTQLLMGTKSVCEVGSNWFQPIYLGAMFSLQEGDKLMVNVSDISLVDYTKEDKTFFGAFLL
notes: also called TL1W105 (T185N)
As for B13, in test [1], the EC50 was determined as 180 nM and the “Rel EC50” value is 6.9 ratio (head: nM). Further, in test [2], the EC50 stood at 11.3 nM and the “Rel EC50” value was 2.4 ratio (head: nM).

B14: TL1W112 (His-TEV-TL1A P189F) (ligand)
chain: HHHHHHENLYFQGLKGQEFAPSHQQVYAPLRADGDKPRAHLTVVRQTPTQHFKNQFPALHWEHELGLAFTKNRMNYTNKFLLIPESGDYFIYSQVTFRGMTSECSEIRQAGRPNKPDSITVVITKVTDSYFEPTQLLMGTKSVCEVGSNWFQPIYLGAMFSLQEGDKLMVNVSDISLVDYTKEDKTFFGAFLL
notes: also called TL1W112 (P189F)
Turning to B14, in test [1], the EC50 came to 202 nM and the “Rel EC50” value was 7.7 ratio (head: nM). Also, in test [2], a half-maximal effect (EC50) was put at 66.1 nM and the “Rel EC50” value was 14.4 ratio (head: nM).

B15: TL1W104 (His-TEV-TL1A T185L) (ligand)
chain: HHHHHHENLYFQGLKGQEFAPSHQQVYAPLRADGDKPRAHLTVVRQTPTQHFKNQFPALHWEHELGLAFTKNRMNYTNKFLLIPESGDYFIYSQVTFRGMTSECSEIRQAGRPNKPDSITVVITKVLDSYPEPTQLLMGTKSVCEVGSNWFQPIYLGAMFSLQEGDKLMVNVSDISLVDYTKEDKTFFGAFLL
notes: also called TL1W104 (T185L)
As for B15, the results for the EC50 in test [1] and in test [2] were 49.4 nM and 19.3 nM, respectively. The “Rel EC50” value was 1.9 ratio (head: nM) in test [1] and 4.2 ratio (head: nM) in test [2].
